# Reference: article PMC8908386
# Target: FLAG-MTA1^C (UniProt Q13330)
# Assay: affinity purification with mass spectrometry
# UniProt Q13330, sequence (Q13330 449-715): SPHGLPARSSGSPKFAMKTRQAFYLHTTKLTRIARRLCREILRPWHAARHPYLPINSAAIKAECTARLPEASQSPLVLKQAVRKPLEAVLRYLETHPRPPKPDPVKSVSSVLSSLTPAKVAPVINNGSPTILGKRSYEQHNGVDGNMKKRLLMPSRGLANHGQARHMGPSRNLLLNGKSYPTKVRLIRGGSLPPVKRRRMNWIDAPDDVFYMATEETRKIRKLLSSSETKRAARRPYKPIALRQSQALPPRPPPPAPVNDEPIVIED
substance,measurement,value
HA-RBBP4 (from UniProt Q09028 1-425) (natural protein),stoichiometry N (RBBP per MTA^C),2.5
